Laboratory results: article PMC10145227

Key:
[1] = nanoDSF, F350/F330 ratio and scattering; settings: control: rDSPAα1
[2] = purified protein yield from P. pastoris; settings: control: rDSPAα1
[3] = S-2765 activity after 1 h at 30-90 °C or pH 3-12; settings: control: rDSPAα1
[4] = fibrin plate lysis area, t-PA standard; settings: control: rDSPAα1
[5] = S-2765 hydrolysis kinetics, fibrinogen cofactor; settings: control: rDSPAα1
[6] = ratio of S-2765 Kcat/Km, fibrin/fibrinogen; settings: control: rDSPAα1
[7] = S-2765 hydrolysis kinetics, fibrin cofactor; settings: control: rDSPAα1
[8] = S-2765 hydrolysis kinetics, no cofactor; settings: glycan lost; control: rDSPAα1
[9] = thrombus length, dry and wet weight; settings: control: rDSPAα1
[10] = hindlimb vein bleeding time after dosing; settings: control: rDSPAα1
[11] = recanalization rate, FeCl3 carotid thrombosis; settings: control: rDSPAα1
[12] = plasma plasminogen ELISA, slope versus time; settings: control: rDSPAα1
[13] = ELISA, slope of concentration versus time; settings: control: rDSPAα1
[14] = H&E thrombus section score (higher is worse); settings: control: rDSPAα1
[15] = ELISA time course after dosing; settings: control: rDSPAα1
[16] = blood routine examination, 1 h after dosing; settings: glycan gained; control: rDSPAα1

B1: DSPAα1: ANGlyα1 + U (protein)
parent chain: MVNTMKTKLLCVLLLCGAVFSLPRQETYRQLARGSRAYGVACKDEITQMTYRRQESWLRPEVRSKRVEHCQCDRGQARCHTVPVNSCSEPRCFNGGTCWQAVYFSDFVCQCPAGYTGKRCEVDTRATCYEGQGVTYRGTWSTAESRVECINWNSSLLTRRTYNGRMPDAFNLGLGNHNYCRNPNGAPKPWCYVIKAGKFTSESCSVPVCSKATCGLRKYKEPQLHSTGGLFTDITSHPWQAAIFAQNRRSSGERFLCGGILISSCWVLTAAHCFQESYLPDQLKVVLGRTYRVKPGEEEQTFKVKKYIVHKEFDDDTYNNDIALLQLKSDSPQCAQESDSVRAICLPEANLQLPDWTECELSGYGKHKSSSPFYSEQLKEGHVRLYPSSRCAPKFLFNKTVTNNMLCAGDTRSGEIYPNVHDACQGDSGGPLVCMNDNHMTLLGIISWGVGCGEKDVPGVYTKVTNYLGWIRDNMHL
[1]; glycan gained
  stability_or_folding: no change
[2]; glycan gained
  expression_or_secretion, percent_of_wt: no change
[3]; glycan gained
  stability_or_folding: no change
[4]; glycan gained
  enzymatic_activity, percent_of_wt: decreases

B2: DSPAα1: QNGlyα1-1 (protein)
parent chain: MVNTMKTKLLCVLLLCGAVFSLPRQETYRQLARGSRAYGVACKDEITQMTYRRQESWLRPEVRSKRVEHCQCDRGQARCHTVPVNSCSEPRCFNGGTCWQAVYFSDFVCQCPAGYTGKRCEVDTRATCYEGQGVTYRGTWSTAESRVECINWNSSLLTRRTYNGRMPDAFNLGLGNHNYCRNPNGAPKPWCYVIKAGKFTSESCSVPVCSKATCGLRKYKEPQLHSTGGLFTDITSHPWQAAIFAQNRRSSGERFLCGGILISSCWVLTAAHCFQESYLPDQLKVVLGRTYRVKPGEEEQTFKVKKYIVHKEFDDDTYNNDIALLQLKSDSPQCAQESDSVRAICLPEANLQLPDWTECELSGYGKHKSSSPFYSEQLKEGHVRLYPSSRCAPKFLFNKTVTNNMLCAGDTRSGEIYPNVHDACQGDSGGPLVCMNDNHMTLLGIISWGVGCGEKDVPGVYTKVTNYLGWIRDNMHL
[5]; glycan lost
  enzymatic_activity, kcat_Km: no change, 292.580 ± 1.780 vs 282.240 ± 13.070
[1]; glycan lost
  stability_or_folding: no change
[2]; glycan lost
  expression_or_secretion, percent_of_wt: decreases
[6]; glycan lost
  other: fibrin selectivity, other: ratio Fbn/Fbg: decreases, 1.100 vs 20.800
[7]; glycan lost
  enzymatic_activity, kcat_Km: decreases, 333.760 ± 20.680 vs 5883.440 ± 983.570
[3]; glycan lost
  stability_or_folding: no change
[4]; glycan lost
  enzymatic_activity, percent_of_wt: decreases
[8]
  enzymatic_activity, kcat_Km: no change, 38.800 ± 0.780 vs 34.830 ± 2.350

B3: DSPAα1: QNGlyα1 (protein)
parent chain: MVNTMKTKLLCVLLLCGAVFSLPRQETYRQLARGSRAYGVACKDEITQMTYRRQESWLRPEVRSKRVEHCQCDRGQARCHTVPVNSCSEPRCFNGGTCWQAVYFSDFVCQCPAGYTGKRCEVDTRATCYEGQGVTYRGTWSTAESRVECINWNSSLLTRRTYNGRMPDAFNLGLGNHNYCRNPNGAPKPWCYVIKAGKFTSESCSVPVCSKATCGLRKYKEPQLHSTGGLFTDITSHPWQAAIFAQNRRSSGERFLCGGILISSCWVLTAAHCFQESYLPDQLKVVLGRTYRVKPGEEEQTFKVKKYIVHKEFDDDTYNNDIALLQLKSDSPQCAQESDSVRAICLPEANLQLPDWTECELSGYGKHKSSSPFYSEQLKEGHVRLYPSSRCAPKFLFNKTVTNNMLCAGDTRSGEIYPNVHDACQGDSGGPLVCMNDNHMTLLGIISWGVGCGEKDVPGVYTKVTNYLGWIRDNMHL
[1]; glycan lost
  stability_or_folding: no change
[2]; glycan lost
  expression_or_secretion, percent_of_wt: decreases
[9]; glycan lost
  other: thrombolytic efficacy in rats: abolishes
[6]; glycan lost
  other: fibrin selectivity, other: ratio Fbn/Fbg: decreases, 0.700 vs 20.800
[10]; glycan lost
  other: bleeding time in rats: increases
[11]; glycan lost
  other: thrombolytic efficacy in rats, other: recanalized rats: abolishes, 0/8 vs 4/8
[3]; glycan lost
  stability_or_folding: no change
[12]; glycan lost
  other: plasminogen activation in rats: abolishes
[4]; glycan lost
  enzymatic_activity, percent_of_wt: abolishes
[13]; glycan lost
  other: plasma FDP rise in rats: decreases
[14]; glycan lost
  other: thrombolytic efficacy in rats, other: total score: decreases, 103.333 ± 0.816 vs 61.667 ± 1.966
[15]; glycan lost
  other: plasma D-dimer course in rats: increases
  other: plasma α2-AP concentration in rats: no change

B4: DSPAα1: ANGlyα1 + 2 (protein)
parent chain: MVNTMKTKLLCVLLLCGAVFSLPRQETYRQLARGSRAYGVACKDEITQMTYRRQESWLRPEVRSKRVEHCQCDRGQARCHTVPVNSCSEPRCFNGGTCWQAVYFSDFVCQCPAGYTGKRCEVDTRATCYEGQGVTYRGTWSTAESRVECINWNSSLLTRRTYNGRMPDAFNLGLGNHNYCRNPNGAPKPWCYVIKAGKFTSESCSVPVCSKATCGLRKYKEPQLHSTGGLFTDITSHPWQAAIFAQNRRSSGERFLCGGILISSCWVLTAAHCFQESYLPDQLKVVLGRTYRVKPGEEEQTFKVKKYIVHKEFDDDTYNNDIALLQLKSDSPQCAQESDSVRAICLPEANLQLPDWTECELSGYGKHKSSSPFYSEQLKEGHVRLYPSSRCAPKFLFNKTVTNNMLCAGDTRSGEIYPNVHDACQGDSGGPLVCMNDNHMTLLGIISWGVGCGEKDVPGVYTKVTNYLGWIRDNMHL
[5]; glycan gained
  enzymatic_activity, kcat_Km: decreases, 248.960 ± 6.330 vs 282.240 ± 13.070
[1]; glycan gained
  stability_or_folding: no change
[2]; glycan gained
  expression_or_secretion, percent_of_wt: no change
[9]; glycan gained
  other: thrombolytic efficacy in rats: decreases
[6]; glycan gained
  other: fibrin selectivity, other: ratio Fbn/Fbg: decreases, 13.100 vs 20.800
[10]; glycan gained
  other: bleeding time in rats: no change
[11]; glycan gained
  other: thrombolytic efficacy in rats, other: recanalized rats: decreases, 3/8 vs 4/8
[7]; glycan gained
  enzymatic_activity, kcat_Km: decreases, 3257.040 ± 561.250 vs 5883.440 ± 983.570, The Kcat/Km of ANGlyα1 + 2 was 79% of rDSPAα1 when fibrin was used as a cofactor
[16]
  other: platelet count in rats, other: PLT: no change, 712.667 ± 16.010 vs 724.333 ± 50.817
[3]; glycan gained
  stability_or_folding: no change
[12]; glycan gained
  other: plasminogen activation in rats: decreases
[4]; glycan gained
  enzymatic_activity, percent_of_wt: decreases
[13]; glycan gained
  other: plasma FDP rise in rats: increases
[14]; glycan gained
  other: thrombolytic efficacy in rats, other: total score: decreases, 92.500 ± 1.049 vs 61.667 ± 1.966
[15]; glycan gained
  other: plasma D-dimer course in rats: changes
  other: plasma PAI concentration in rats: no change
  other: plasma α2-AP concentration in rats: decreases

B5: DSPAα1: QNGlyα1-2 (protein)
parent chain: MVNTMKTKLLCVLLLCGAVFSLPRQETYRQLARGSRAYGVACKDEITQMTYRRQESWLRPEVRSKRVEHCQCDRGQARCHTVPVNSCSEPRCFNGGTCWQAVYFSDFVCQCPAGYTGKRCEVDTRATCYEGQGVTYRGTWSTAESRVECINWNSSLLTRRTYNGRMPDAFNLGLGNHNYCRNPNGAPKPWCYVIKAGKFTSESCSVPVCSKATCGLRKYKEPQLHSTGGLFTDITSHPWQAAIFAQNRRSSGERFLCGGILISSCWVLTAAHCFQESYLPDQLKVVLGRTYRVKPGEEEQTFKVKKYIVHKEFDDDTYNNDIALLQLKSDSPQCAQESDSVRAICLPEANLQLPDWTECELSGYGKHKSSSPFYSEQLKEGHVRLYPSSRCAPKFLFNKTVTNNMLCAGDTRSGEIYPNVHDACQGDSGGPLVCMNDNHMTLLGIISWGVGCGEKDVPGVYTKVTNYLGWIRDNMHL
[1]; glycan lost
  stability_or_folding: no change
[2]; glycan lost
  expression_or_secretion, percent_of_wt: decreases
[6]; glycan lost
  other: fibrin selectivity, other: ratio Fbn/Fbg: decreases, 8.500 vs 20.800
[3]; glycan lost
  stability_or_folding: no change
[4]; glycan lost
  enzymatic_activity, percent_of_wt: decreases
